These results are taken from US20150344571A1 (KANGWON NATIONAL UNIVERSITY UNIVERSITY INDUSTRY COOPERATION …, published 2015).

In experiment [1] the target is T1, human L1CAM (purified extracellular domain) (human, UniProt P32004 20-1112).
T1 construct: range 1-1112; Expressed in HEK293T from pJK-dhfr2-L1-monomer; The stated range 1-1112 begins at residue 1 of the precursor; no signal peptide limits are stated; also called human L1CAM antigen
The experiment can be described thus: competitive ELISA. On the procedure:
(§1) The affinities of the purified antibodies for human L1CAM were measured by competitive ELISA. Human L1CAM was prepared at a density of 1×10⁻⁶ M and serially diluted to 1×10⁻¹¹ M using a PBS buffer solution. Respective antibodies were prepared by diluting them in PBS buffer solution at particular concentrations according to their binding capacity. The antigens and antibodies thus diluted were reacted with each other at the same volume ratio, and allowed to react at room temperature for 2 hours.
(§2) 96-well plates (MaxiSorp, Nunc) were coated using the purified human L1CAM which were diluted in a buffer solution (15 mM Na₂CO₃, 34.84 mM NaHCO₃, pH 9.6) at a concentration of 100 ng/well, at 4° C. overnight. Next day, the wells were washed with 0.05% PBS-T buffer solution twice. Difco skim milk (BD) was dissolved in 0.05% PBS-T buffer solution at a concentration of 2%, and 200 μl thereof was added to each well, followed by incubation at room temperature for 1 hour. Then, the wells were washed with 0.05% PBS-T buffer solution twice. To the plate, 100 it of the antigen/antibody reactant that were reacted for 2 hours was added and allowed to react at room temperature for 1 hour. Then, the wells were washed with 0.05% PBS-T buffer solution three times to remove non-antigen bound antibodies. Goat anti-human IgG(Fc)-HRP (Pierce, 1/5000) that specifically recognizes the Fc region of human antibody was added as a secondary antibody, and allowed to react at room temperature for 1 hour. Then, the wells were washed with 0.05% PBS-T buffer solution four times to remove the remaining secondary antibodies. […] Then, 50 μl of 2.5 M H₂SO₄ solution was added to each well to terminate the enzymatic reaction. After terminating the reaction, absorbance was measured at 450 nm (VERSAmax microplate reader, Molecular Devices).
Affinity of the purified Ab417 antibody for human L1CAM was measured by competitive ELISA in the same manner as in Example 3-2.
(In general: ELISA stands for enzyme-linked immunosorbent assay.)

Experiment [2] deals with T2, mouse L1CAM (purified extracellular domain with S1 tag) (mouse, UniProt P11627 20-1123).
T2 construct: extracellular domain; also called mouse L1CAM monomer; not shown: S1 tag from the pJEX2T vector
The experiment can be described thus: competitive ELISA with mouse L1CAM.

The target of experiment [3] is T1, human L1CAM (purified extracellular …). The experiment can be described thus: competitive ELISA (soluble human L1CAM against coated human L1CAM). On the procedure: as §1, §2
The target is the same in experiment [4]. The experiment can be described thus: Octet RED (called SPR in the filing), antibody on AHC sensor, soluble human L1CAM. On the procedure: (§3) In addition to the competitive ELISA, SPR (surface […] resonance) was measured using Octet RED (ForteBio, USA) according to the manufacturer's protocol to determine the affinities of Ab417 antibody and Ab4M antibody for human and mouse L1CAM. […] AHC (anti-human IgG Fc capture) sensor chip was used to analyze binding kinetics of the antibodies to antigens by examining changes in refractive index which occurs upon association and dissociation of antibody and antigen while transferring the sensor chip to PBS solution, antibody, PBS solution, antigen, and PBS solution in this order.

In experiment [5] the target is T2, mouse L1CAM (purified extracellular …). The experiment can be described thus: Octet RED (called SPR in the filing), antibody on AHC sensor, soluble mouse L1CAM. On the procedure: as §3
On the technique in general: Biolayer interferometry detects binding as a change in optical thickness at a sensor tip.

The target of experiment [6] is T1, human L1CAM (purified extracellular …). The experiment can be described thus: Octet RED, antibody on AHC sensor, soluble human L1CAM. The protocol: (§4) Affinities of Ab417, Ab417-H6L2 mutant, and Ab417-H6L6 mutant for human and mouse L1CAM were examined using Octet RED (fortebio). […] Each 200 it thereof was added to opaque 96-well plate to prevent light transmission. AHC (anti-human IgG Fc capture) sensor chip was used to analyze binding kinetics of the antibodies to antigens by examining changes in refractive index which occurs upon association and dissociation of antibody and antigen while transferring the sensor chip to PBS solution, antibody, PBS solution, antigen, and PBS solution in this order.
(§5) Despite amino acid substitution, there were no changes in the affinities of these antibodies (Table 4), and there were also no changes in the affinities of these antibodies for mouse L1CAM (Table 5).

The target in experiment [7] is T2, mouse L1CAM (purified extracellular …). The experiment can be described thus: Octet RED, antibody on AHC sensor, soluble mouse L1CAM. On the procedure:
as §4, §5

For experiment [8] the target is unchanged. The experiment can be described thus: indirect ELISA on coated mouse L1CAM, mutant IgG in culture supernatant, relative to Ab4. The source says:
The expression vectors of respective mutants were obtained in a large amount, and transfected to human embryonic kidney HEK293T cells using Lipofectamine 2000 (invitrogen), followed by culture. The transfected cells produce and secrete whole antibodies out of the cells, and the culture supernatants were collected and subjected to indirect ELISA as follows. 96-well plates (MaxiSorp, Nunc) were coated using the purified extracellular domain of human L1CAM (hereinafter, referred to as ‘human L1CAM’) and the extracellular domain of purified mouse L1CAM (hereinafter, referred to as ‘mouse L1CAM’) as antigens, which were diluted in a buffer solution (15 mM Na₂CO₃, 34.84 mM NaHCO₃, pH 9.6) at a concentration of 100 ng/well, at 4° C. overnight. Next day, the plate was washed with 0.05% PBS-T buffer solution twice. Difco skim milk (BD) was dissolved in 0.05% PBS-T buffer solution at a concentration of 2%, and 200 μl thereof was added to each well, followed by incubation at 37° C. for 1 hour. Then, the wells were washed with 0.05% PBS-T buffer solution twice. To the plate, 100 μl of the supernatant was added and allowed to react at 37° C. for 1 hour. Then, the wells were washed with 0.05% PBS-T buffer solution three times to remove non-antigen bound antibodies. Goat anti-human IgG(Fc)-HRP (Pierce, 1/5000) that specifically recognizes the Fc region of human antibody was added as a secondary antibody, and allowed to react at 37° C. for 1 hour. Then, the wells were washed with 0.05% PBS-T buffer solution four times to remove the remaining secondary antibodies.
Then, 50 μl of 2.5 M H₂SO₄ solution was added to each well to terminate the enzymatic reaction. After terminating the reaction, absorbance was measured at 450 nm (VERSAmax microplate reader, Molecular Devices).

T2 sequence (P11627 20-1123): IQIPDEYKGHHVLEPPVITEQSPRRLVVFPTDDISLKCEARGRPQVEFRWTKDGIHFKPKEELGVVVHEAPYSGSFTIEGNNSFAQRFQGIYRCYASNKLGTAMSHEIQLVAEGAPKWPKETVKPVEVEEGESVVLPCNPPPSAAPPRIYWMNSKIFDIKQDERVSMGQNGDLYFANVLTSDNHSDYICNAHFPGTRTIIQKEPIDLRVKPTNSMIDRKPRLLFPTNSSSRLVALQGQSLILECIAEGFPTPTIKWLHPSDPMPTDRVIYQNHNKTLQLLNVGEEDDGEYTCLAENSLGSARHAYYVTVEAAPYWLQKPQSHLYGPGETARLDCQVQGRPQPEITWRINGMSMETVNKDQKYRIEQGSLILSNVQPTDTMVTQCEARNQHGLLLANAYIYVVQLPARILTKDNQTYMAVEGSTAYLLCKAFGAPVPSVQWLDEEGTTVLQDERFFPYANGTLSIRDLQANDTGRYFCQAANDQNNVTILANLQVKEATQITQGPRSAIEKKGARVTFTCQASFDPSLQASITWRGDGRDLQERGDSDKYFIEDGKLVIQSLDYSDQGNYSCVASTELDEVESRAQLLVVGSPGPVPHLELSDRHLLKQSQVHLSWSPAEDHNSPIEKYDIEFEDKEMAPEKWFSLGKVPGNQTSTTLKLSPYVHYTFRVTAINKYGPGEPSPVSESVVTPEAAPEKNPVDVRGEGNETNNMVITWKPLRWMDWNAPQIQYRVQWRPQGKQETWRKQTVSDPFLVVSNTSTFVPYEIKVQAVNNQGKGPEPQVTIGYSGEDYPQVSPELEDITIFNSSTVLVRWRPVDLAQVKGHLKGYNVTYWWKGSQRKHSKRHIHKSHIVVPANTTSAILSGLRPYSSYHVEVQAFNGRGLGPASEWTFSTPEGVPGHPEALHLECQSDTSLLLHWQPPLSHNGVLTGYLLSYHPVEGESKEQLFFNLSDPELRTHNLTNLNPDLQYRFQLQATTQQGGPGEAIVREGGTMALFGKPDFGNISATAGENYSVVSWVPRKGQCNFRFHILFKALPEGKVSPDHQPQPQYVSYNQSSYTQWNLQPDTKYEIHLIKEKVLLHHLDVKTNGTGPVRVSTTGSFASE
T1 sequence (P32004 20-1112 limits assumed, form in doubt): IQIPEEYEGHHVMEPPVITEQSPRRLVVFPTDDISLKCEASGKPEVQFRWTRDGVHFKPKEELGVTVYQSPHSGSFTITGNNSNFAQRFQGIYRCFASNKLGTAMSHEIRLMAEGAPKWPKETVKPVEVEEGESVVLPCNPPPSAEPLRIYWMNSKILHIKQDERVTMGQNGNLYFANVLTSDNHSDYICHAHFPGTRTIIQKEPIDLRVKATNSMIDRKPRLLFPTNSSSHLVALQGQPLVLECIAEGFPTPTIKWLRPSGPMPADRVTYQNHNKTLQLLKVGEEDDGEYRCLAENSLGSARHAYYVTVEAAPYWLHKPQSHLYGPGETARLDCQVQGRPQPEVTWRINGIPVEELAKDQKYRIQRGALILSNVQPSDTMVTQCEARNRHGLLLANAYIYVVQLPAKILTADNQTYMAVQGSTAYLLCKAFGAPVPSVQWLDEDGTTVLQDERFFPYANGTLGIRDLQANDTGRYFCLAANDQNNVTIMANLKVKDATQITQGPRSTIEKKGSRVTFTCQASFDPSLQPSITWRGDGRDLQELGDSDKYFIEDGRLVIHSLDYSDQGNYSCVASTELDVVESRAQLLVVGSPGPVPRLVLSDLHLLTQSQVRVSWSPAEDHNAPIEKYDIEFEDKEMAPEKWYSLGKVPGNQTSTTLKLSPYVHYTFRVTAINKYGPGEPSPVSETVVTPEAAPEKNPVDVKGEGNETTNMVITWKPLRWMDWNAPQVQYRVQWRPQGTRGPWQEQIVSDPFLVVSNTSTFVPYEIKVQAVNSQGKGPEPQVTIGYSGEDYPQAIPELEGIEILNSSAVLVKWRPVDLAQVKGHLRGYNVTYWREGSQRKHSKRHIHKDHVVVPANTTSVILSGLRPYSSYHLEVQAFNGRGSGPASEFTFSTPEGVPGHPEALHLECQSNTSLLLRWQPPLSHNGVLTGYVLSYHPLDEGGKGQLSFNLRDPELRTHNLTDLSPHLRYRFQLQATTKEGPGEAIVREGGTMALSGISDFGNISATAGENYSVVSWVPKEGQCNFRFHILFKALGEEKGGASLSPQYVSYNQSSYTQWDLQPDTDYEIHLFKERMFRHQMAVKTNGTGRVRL

B1: Ab4M antibody (antibody, IgG1, V domains shown)
VH: EVQLVESGGGVVQPGRSLRLSCAASGFTFSRFGMHWVRQAPGKGLEWVAFISNDGSNKYYADSVKGRFTISRDNSKNTLYLQMNSLRPEDTAVYYCARGRAYGSGSLFDPWGQGTLVTVSS
VL: DIQLTQSPSSLSASVGDRVTITCRASRTISIYVNWYRQRPGKAPESLIYAASNLHSGVPSRFSGSGSGTDFTLTISSLQPEDFATYYCQQTHATRQYTFGQGTKLEIK
notes: Ab4 with V50F and H97A in VH and V75I, G84A and D93A in VK; Whole IgG (IgG1 vector pdCMV-dhfrC-Ab4M)
As usually defined, the Kd is a measure of binding affinity in units of concentration. Broadly, the koff is the rate constant with which the complex falls apart. Low readings indicate slow dissociation, high ones fast dissociation. What is called kon is the second-order rate constant of association. Higher therefore signals faster complex formation. Consider B1, for which the entries for the “fold higher affinity than Ab4” value in experiment [1] and in experiment [2] were ~45 fold and ~8 fold, respectively. Besides, the Kd in experiment [2] came to 0.22 nM; in experiment [3], 2.9 nM; in experiment [4], 0.33 nM; in experiment [5], 0.0893 nM. Besides, the results for the koff in experiment [4] and in experiment [5] were 4.3e-05 s⁻¹ and 2.22e-05 s⁻¹, respectively. For the same molecule, the values for the kon in experiment [4] and in experiment [5] were 130000 M⁻¹ s⁻¹ and 249000 M⁻¹ s⁻¹, respectively.

B2: Ab417-H6L6 antibody (antibody, V domains shown)
VH: EVQLVESGGGVVQPGGSLRLSCAASGFTFSRFGMHWVRQAPGKGLEWVAFISNEGSNKYYADSVKGRFTISRDNSANTLYLQMNSLRAEDTAVYYCARGRAYGSGSLFDPWGQGTLVTVSS
VL: DIQLTQSPSSLSASVGDRVTITCRASRTISSYVNWYQQKPGQAPESLIYAASNLHSGVPSRFSGSGSGTDFTLTISSLQPEDFATYYCQQSIGRGVVTFGQGTKLEIK
notes: L6 is the Ab417 VK with I31S, R37Q, R39K and K42Q; also called Ab417-H6L6 mutant; H6L6 mutant
Consider B2, for which, in experiment [6], binding was characterised by a dissociation constant (Kd) of 0.246 nM, the koff was found to be 3.64e-05 s⁻¹ and the kon came to 148000 M⁻¹ s⁻¹. In experiment [7], this molecule had a Kd of 0.0984 nM, a koff of 2.11e-05 s⁻¹ and a kon of 214000 M⁻¹ s⁻¹.

B3: Ab417-H6L2 antibody (antibody, V domains shown)
VH: EVQLVESGGGVVQPGGSLRLSCAASGFTFSRFGMHWVRQAPGKGLEWVAFISNEGSNKYYADSVKGRFTISRDNSANTLYLQMNSLRAEDTAVYYCARGRAYGSGSLFDPWGQGTLVTVSS
VL: DIQLTQSPSSLSASVGDRVTITCRASRTISSYVNWYRQRPGKAPESLIYAASNLHSGVPSRFSGSGSGTDFTLTISSLQPEDFATYYCQQSIGRGVVTFGQGTKLEIK
notes: H6 is the Ab417 VH with R16G, D54E, K76A and P88A; L2 is the Ab417 VK with I31S; also called Ab417-H6L2 mutant; H6L2 mutant
In experiment [6], B3 had a Kd of 0.22 nM, a koff of 3.22e-05 s⁻¹ and a kon of 146000 M⁻¹ s⁻¹. In experiment [7], this molecule registered a Kd of 0.131 nM, a koff of 2.67e-05 s⁻¹ and a kon of 204000 M⁻¹ s⁻¹.

B4: G99A (antibody, V domains shown)
VH: EVQLVESGGGVVQPGRSLRLSCAASGFTFSRFGMHWVRQAPGKGLEWVAVISNDGSNKYYADSVKGRFTISRDNSKNTLYLQMNSLRPEDTAVYYCARGRHYASGSLFDPWGQGTLVTVSS
VL: DIQLTQSPSSLSASVGDRVTITCRASRTISIYVNWYRQRPGKAPESLIYAASNLHSGVPSRFSGSGSGTDFTLTVSSLQPEDFGTYYCQQTHDTRQYTFGQGTKLEIK
notes: whole IgG; also called Ab4 VH G99A (HCDR3 alanine mutant); copies: 2 + 2
Regarding B4, the binding result in experiment [8] is reported as “no binding”.

B5: Y98A (antibody, V domains shown)
VH: EVQLVESGGGVVQPGRSLRLSCAASGFTFSRFGMHWVRQAPGKGLEWVAVISNDGSNKYYADSVKGRFTISRDNSKNTLYLQMNSLRPEDTAVYYCARGRHAGSGSLFDPWGQGTLVTVSS
VL: DIQLTQSPSSLSASVGDRVTITCRASRTISIYVNWYRQRPGKAPESLIYAASNLHSGVPSRFSGSGSGTDFTLTVSSLQPEDFGTYYCQQTHDTRQYTFGQGTKLEIK
notes: whole IgG; also called Ab4 VH Y98A (HCDR3 alanine mutant); copies: 2 + 2
For B5, the binding result in experiment [8] is given as “no binding”.

B6: H97A mutant of Ab4 antibody (antibody, IgG1, name in Kabat numbering, V domains shown)
VH: EVQLVESGGGVVQPGRSLRLSCAASGFTFSRFGMHWVRQAPGKGLEWVAVISNDGSNKYYADSVKGRFTISRDNSKNTLYLQMNSLRPEDTAVYYCARGRAYGSGSLFDPWGQGTLVTVSS
VL: DIQLTQSPSSLSASVGDRVTITCRASRTISIYVNWYRQRPGKAPESLIYAASNLHSGVPSRFSGSGSGTDFTLTVSSLQPEDFGTYYCQQTHDTRQYTFGQGTKLEIK
notes: Whole IgG made in the pdCMV-dhfrC-Ab4 vector (IgG1); also called VH H97A mutant of Ab4
The molecule B6 returned an equilibrium dissociation constant (Kd) in experiment [3] of 29 nM.

B7: R96A (antibody, V domains shown)
VH: EVQLVESGGGVVQPGRSLRLSCAASGFTFSRFGMHWVRQAPGKGLEWVAVISNDGSNKYYADSVKGRFTISRDNSKNTLYLQMNSLRPEDTAVYYCARGAHYGSGSLFDPWGQGTLVTVSS
VL: DIQLTQSPSSLSASVGDRVTITCRASRTISIYVNWYRQRPGKAPESLIYAASNLHSGVPSRFSGSGSGTDFTLTVSSLQPEDFGTYYCQQTHDTRQYTFGQGTKLEIK
notes: whole IgG; also called Ab4 VH R96A (HCDR3 alanine mutant); copies: 2 + 2
Turning to B7, the binding result in experiment [8] was “no binding”.

B8: D93A mutant of Ab4 antibody (antibody, IgG1, V domains shown)
VH: EVQLVESGGGVVQPGRSLRLSCAASGFTFSRFGMHWVRQAPGKGLEWVAVISNDGSNKYYADSVKGRFTISRDNSKNTLYLQMNSLRPEDTAVYYCARGRHYGSGSLFDPWGQGTLVTVSS
VL: DIQLTQSPSSLSASVGDRVTITCRASRTISIYVNWYRQRPGKAPESLIYAASNLHSGVPSRFSGSGSGTDFTLTVSSLQPEDFGTYYCQQTHATRQYTFGQGTKLEIK
notes: Whole IgG made in the pdCMV-dhfrC-Ab4 vector (IgG1); also called VK D93A mutant
In experiment [3], B8 registered a Kd of 30 nM.

B9: V50F/H97A mutant of Ab4 antibody (antibody, name in Kabat numbering, V domains shown)
VH: EVQLVESGGGVVQPGRSLRLSCAASGFTFSRFGMHWVRQAPGKGLEWVAFISNDGSNKYYADSVKGRFTISRDNSKNTLYLQMNSLRPEDTAVYYCARGRAYGSGSLFDPWGQGTLVTVSS
VL: DIQLTQSPSSLSASVGDRVTITCRASRTISIYVNWYRQRPGKAPESLIYAASNLHSGVPSRFSGSGSGTDFTLTVSSLQPEDFGTYYCQQTHDTRQYTFGQGTKLEIK
notes: also called VH V50F/H97A mutant
In the case of B9, binding in experiment [3] was put at a Kd of 18 nM. Against the preceding molecule, the Kd is about 1.7-fold lower.
